In one experiment the target is human CD22 (human) (UniProt P20273). Put plainly: cell-based or functional assay.
A further experiment has as its target human CD3 (human). Put plainly: cell-based or functional assay.
In the next experiment the target is mouse CD20 (mouse) (UniProt P19437). The experiment in a line: flow cytometry on MC38/mCD20 cells. In general terms: A flow cytometer gives signals particle by particle.
For another experiment, the target named is mouse PD1 (mouse) (UniProt Q02242). The experiment in a line: cell-based or functional assay.
Sequence of mouse PD1 (mouse) (Q02242 25-288): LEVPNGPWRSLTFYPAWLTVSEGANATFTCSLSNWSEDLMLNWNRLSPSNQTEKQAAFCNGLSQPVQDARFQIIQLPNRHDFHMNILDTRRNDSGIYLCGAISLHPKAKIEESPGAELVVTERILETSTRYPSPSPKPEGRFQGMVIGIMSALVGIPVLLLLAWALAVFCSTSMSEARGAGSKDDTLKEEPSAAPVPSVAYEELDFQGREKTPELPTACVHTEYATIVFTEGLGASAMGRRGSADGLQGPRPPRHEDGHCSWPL

Sequence of human CD22 (human) (P20273 20-847): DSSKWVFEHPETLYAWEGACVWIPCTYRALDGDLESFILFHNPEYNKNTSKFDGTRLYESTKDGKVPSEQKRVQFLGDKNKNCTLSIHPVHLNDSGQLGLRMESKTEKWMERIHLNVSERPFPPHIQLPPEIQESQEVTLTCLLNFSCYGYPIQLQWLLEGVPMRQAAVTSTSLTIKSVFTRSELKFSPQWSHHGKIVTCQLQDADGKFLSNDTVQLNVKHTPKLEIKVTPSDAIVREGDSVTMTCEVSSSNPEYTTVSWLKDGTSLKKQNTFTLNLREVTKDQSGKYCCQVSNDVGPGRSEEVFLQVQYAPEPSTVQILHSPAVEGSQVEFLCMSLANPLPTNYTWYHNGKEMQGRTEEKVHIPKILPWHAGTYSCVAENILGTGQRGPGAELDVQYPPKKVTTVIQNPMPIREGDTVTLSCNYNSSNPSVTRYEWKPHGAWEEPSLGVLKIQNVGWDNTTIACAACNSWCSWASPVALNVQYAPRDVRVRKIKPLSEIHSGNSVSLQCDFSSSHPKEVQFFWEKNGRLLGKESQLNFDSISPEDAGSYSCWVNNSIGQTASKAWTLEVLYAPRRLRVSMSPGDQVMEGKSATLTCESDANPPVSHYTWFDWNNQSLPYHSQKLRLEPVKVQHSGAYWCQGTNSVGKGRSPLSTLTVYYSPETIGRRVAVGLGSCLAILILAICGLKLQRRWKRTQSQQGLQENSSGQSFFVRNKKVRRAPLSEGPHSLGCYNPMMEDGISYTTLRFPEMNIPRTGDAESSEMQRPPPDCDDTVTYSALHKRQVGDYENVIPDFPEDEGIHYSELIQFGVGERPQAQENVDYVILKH
Sequence of mouse CD20 (mouse) (P19437 whole entry): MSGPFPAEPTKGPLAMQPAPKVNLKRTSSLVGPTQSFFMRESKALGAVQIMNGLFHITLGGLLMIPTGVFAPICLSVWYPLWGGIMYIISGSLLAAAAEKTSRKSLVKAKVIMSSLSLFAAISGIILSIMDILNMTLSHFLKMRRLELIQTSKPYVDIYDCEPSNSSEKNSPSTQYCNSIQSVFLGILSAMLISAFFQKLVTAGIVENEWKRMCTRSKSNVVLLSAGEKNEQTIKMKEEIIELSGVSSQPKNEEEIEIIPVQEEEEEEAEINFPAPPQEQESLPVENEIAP

Consider “CD3 bsAb (REGN10551) (bispecific antibody)”, for which the EC50, activation of T cell signaling (AP1-luciferase), run with 1 nM CD3 bsAb in the experiment with human CD22 (human) and in the experiment with human CD3 (human) was 1.15 nM throughout. The EC50, activation of T cell signaling (AP1-luciferase), run with 2.5 nM CD3 bsAb with human CD22 (human) and with human CD3 (human) was 0.627 nM throughout.

Single arm mPDL1 WT-Fc (Fc fusion) registered a Max MFI with mouse CD20 (mouse) of 94.9 MFI.

For REGN1932 (hIgG1 control) (antibody), the Max % inhibition, AP1-luciferase bioassay, 2.5 nM CD3 bsAb with mouse PD1 (mouse) stood at 3%.
